According to the Human Domainome abundance scans (Beltran et al. 2025):
± gives the uncertainty stated by the source.

B1: REST corepressor 3, residues 87 to 134; numbered along this chain, Q9P2K3 (parent)
chain: DEWTVEDKVLFEQAFSFHGKSFHRIQQMLPDKTIASLVKYYYSWKKTR

Variants of: B1
Assay: abundance fitness (aPCA) (normalised: wild type 0, dead -1); higher = more abundant; growth selection in yeast, the domain comes from the species named
Conditions: Homo sapiens

Point of comparison: DEWTVEDKVLFEQAFSFHGKSFHRIQQMLPDKTIADLVKYYYSWKKTR, abundance fitness -0.219 ± 0.4. Against it:
- DEWTVEDKVLFEQAFSFHGKSFHRIQQMLPDKTIAKLVKYYYSWKKTR — within error, -0.627 ± 0.37
- DEWTVEDKVLFEQAFSFHGKSFHRIQQMLPDKTIATLVKYYYSWKKTR — within error, -0.347 ± 0.2
- DEWTVEDKVLFEQAFSFHGKSFHRIQQMLPDKTIAQLVKYYYSWKKTR — within error, 0.116 ± 0.12
- DEWTVEDKVLFEQAFSFHGKSFHRIQQMLPDKTIAMLVKYYYSWKKTR — within error, -0.288 ± 0.16
- DEWTVEDKVLFEQAFSFHGKSFHRIQQMLPDKTIAVLVKYYYSWKKTR — within error, -0.761 ± 0.2
- DEWTVEDKVLFEQAFSFHGKSFHRIQQMLPDKTIALLVKYYYSWKKTR — lower, -1.04 ± 0.39
- DEWTVEDKVLFEQAFSFHGKSFHRIQQMLPDKTIARLVKYYYSWKKTR — within error, -0.478 ± 0.21
- DEWTVEDKVLFEQAFSFHGKSFHRIQQMLPDKTIAWLVKYYYSWKKTR — within error, -0.825 ± 0.42
- DEWTVEDKVLFEQAFSFHGKSFHRIQQMLPDKTIACLVKYYYSWKKTR — within error, -0.008 ± 0.25
- DEWTVEDKVLFEQAFSFHGKSFHRIQQMLPDKTIAPLVKYYYSWKKTR — within error, -0.852 ± 0.32
- DEWTVEDKVLFEQAFSFHGKSFHRIQQMLPDKTIAGLVKYYYSWKKTR — within error, -0.167 ± 0.093
- DEWTVEDKVLFEQAFSFHGKSFHRIQQMLPDKTIAHLVKYYYSWKKTR — within error, -0.241 ± 0.31
- DEWTVEDKVLFEQAFSFHGKSFHRIQQMLPDKTIAALVKYYYSWKKTR — within error, -0.504 ± 0.2
- DEWTVEDKVLFEQAFSFHGKSFHRIQQMLPDKTIASLVKRYYSWKKTR — lower, -0.964 ± 0.28
- DEWTVEDKVLFEQAFSFHGKSFHRIQQMLPDKTIASLVKEYYSWKKTR — within error, -0.318 ± 0.34
- DEWTVEDKVLFEQAFSFHGKSFHRIQQMLPDKTIASLVKKYYSWKKTR — within error, -0.346 ± 0.49
- DEWTVEDKVLFEQAFSFHGKSFHRIQQMLPDKTIASLVKVYYSWKKTR — within error, -0.824 ± 0.32
- DEWTVEDKVLFEQAFSFHGKSFHRIQQMLPDKTIASLVKCYYSWKKTR — within error, -0.674 ± 0.49
- DEWTVEDKVLFEQAFSFHGKSFHRIQQMLPDKTIASLVKGYYSWKKTR — lower, -1.09 ± 0.43
- DEWTVEDKVLFEQAFSFHGKSFHRIQQMLPDKTIASLVKPYYSWKKTR — within error, -0.324 ± 0.35
- DEWTVEDKVLFEQAFSFHGKSFHRIQQMLPDKTIASLVKYYESWKKTR — within error, 0.203 ± 0.084
- DEWTVEDKVLFEQAFSFHGKSFHRIQQMLPDKTIASLVKYYFSWKKTR — within error, -0.555 ± 0.31
- DEWTVEDKVLFEQAFSFHGKSFHRIQQMLPDKTIASLVKYYTSWKKTR — within error, 0.103 ± 0.072
- DEWTVEDKVLFEQAFSFHGKSFHRIQQMLPDKTIASLVKYYQSWKKTR — within error, -0.117 ± 0.13
- DEWTVEDKVLFEQAFSFHGKSFHRIQQMLPDKTIASLVKYYPSWKKTR — lower, -0.821 ± 0.11
- DEWTVEDKVLFEQAFSFHGKSFHRIQQMLPDKTIASLVKYYHSWKKTR — within error, -0.236 ± 0.17
- DEWTVEDKVLFEQAFSFHGKSFHRIQQMLPDKTIASLVKYYDSWKKTR — within error, 0.252 ± 0.11
- DEWTVEDKVLFEQAFSFHGKSFHRIQQMLPDKTIASLVKYYRSWKKTR — within error, 0.234 ± 0.062
- DEWTVEDKVLFEQAFSFHGKSFHRIQQMLPDKTIASLVKYYCSWKKTR — within error, -0.132 ± 0.16
- DEWTVEDKVLFEQAFSFHGKSFHRIQQMLPDKTIASLVKYYNSWKKTR — within error, 0.216 ± 0.15
- DEWTVEDKVLFEQAFSFHGKSFHRIQQMLPDKTIASLVKYYGSWKKTR — within error, -0.036 ± 0.052
- DEWTVEDKVLFEQAFSFHGKSFHRIQQMLPDKTIASLVKYYVSWKKTR — within error, 0.02 ± 0.075
- DEWTVEDKVLFEQAFSFHGKSFHRIQQMLPDKTIASLVKYYMSWKKTR — higher, 0.311 ± 0.1
- DEWTVEDKVLFEQAFSFHGKSFHRIQQMLPDKTIASLVKYYASWKKTR — within error, -0.234 ± 0.073
- DEWTVEDKVLFEQAFSFHGKSFHRIQQMLPDKTIASLVKYYSSWKKTR — within error, 0.102 ± 0.075
- DEWTVEDKVLFEQAFSFHGKSFHRIQQMLPDKTIASLVKYYLSWKKTR — within error, 0.015 ± 0.042
- DEWTVEDKVLFEQAFSFHGKSFHRIQQMLPDKTIASLVKYYWSWKKTR — within error, 0.056 ± 0.076
- DEWTVEDKVLFEQAFSFHGKSFHRIQQMLPDKTIASLVKYYISWKKTR — within error, -0.11 ± 0.088
- DEWTVEDKVLFEQAFSFHGKSFHRIQQMLPDKTIASLKKYYYSWKKTR — higher, 0.393 ± 0.08
- DEWTVEDKVLFEQAFSFHGKSFHRIQQMLPDKTIASLIKYYYSWKKTR — higher, 0.279 ± 0.084
- DEWTVEDKVLFEQAFSFHGKSFHRIQQMLPDKTIASLTKYYYSWKKTR — within error, -0.266 ± 0.09
- DEWTVEDKVLFEQAFSFHGKSFHRIQQMLPDKTIASLLKYYYSWKKTR — within error, -0.123 ± 0.065
- DEWTVEDKVLFEQAFSFHGKSFHRIQQMLPDKTIASLQKYYYSWKKTR — within error, -0.499 ± 0.17
- DEWTVEDKVLFEQAFSFHGKSFHRIQQMLPDKTIASLAKYYYSWKKTR — within error, -0.182 ± 0.083
- DEWTVEDKVLFEQAFSFHGKSFHRIQQMLPDKTIASLHKYYYSWKKTR — within error, -0.723 ± 0.17
- DEWTVEDKVLFEQAFSFHGKSFHRIQQMLPDKTIASLCKYYYSWKKTR — within error, -0.647 ± 0.17
- DEWTVEDKVLFEQAFSFHGKSFHRIQQMLPDKTIASLYKYYYSWKKTR — within error, -0.036 ± 0.13
- DEWTVEDKVLFEQAFSFHGKSFHRIQQMLPDKTIASLRKYYYSWKKTR — within error, -0.116 ± 0.069
- DEWTVEDKVLFEQAFSFHGKSFHRIQQMLPDKTIASLMKYYYSWKKTR — within error, -0.115 ± 0.095
- DEWTVEDKVLFEQAFSFHGKSFHRIQQMLPDKTIASLFKYYYSWKKTR — within error, -0.663 ± 0.14
- DEWTVEDKVLFEQAFSFHGKSFHRIQQMLPDKTIASLWKYYYSWKKTR — within error, -0.575 ± 0.15
- DEWTVEDKVLFEQAFSFHGKSFHRIQQMLPDKTIASLEKYYYSWKKTR — within error, -0.12 ± 0.16
- DEWTVEDKVLFEQAFSFHGKSFHRIQQMLPDKTIASLSKYYYSWKKTR — within error, -0.215 ± 0.077
